Data published in the RNAGym collection of RNA variant scans (doi:10.1073/pnas.2313332121).
Variants at the floor of the assay were thinned out.

B1: TPR 5TU (parent)
chain: GGAUCUUCUCGAUCUAACAAAAAAGACAAAUCUGCCACAAAGCUUGAGAGCAUCUUCGGAUGCAGAGGCGGCAGCCUUCGGUGGCGCGAUAGCGCCAACGUUCUCAACUAUGACACGCAAAACGCGUGCUCCGUUGAAUGGAGUUUAUCAUG

Variants of: B1
Experiment: polymerase ribozyme fitness, log enrichment relative to wild type (log ratio); higher = more active; in vitro selection for triplet polymerase activity
Method in brief: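 A heterodimeric triplet polymerase ribozyme had each of its subunits mutagenized by PCR into a library, which was transcribed. One round of in vitro selection, done in triplicate, annealed each library with a biotinylated primer, its partner subunit and triplets, then incubated it frozen at −7 °C before gel excision of extended constructs, streptavidin-bead capture and RT-PCR. Fitness is the logarithm of genotype enrichment relative to wild-type enrichment, based on Illumina sequencing of inputs and outputs and inverse-variance-weighted replicate averages. A base-2 logarithm is used, and genotypes were kept only with ≥10 input reads and ≥1 read per output.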

GGAUCUUCUCGAUCUAACAAACAAGACAAAUGUGCCACAAAGGUUGAGAGCAUCUUCGGAUGCAGAGGCGGCAGCCUUCGGUGGCGCGAUAACGCCAACGUUCUCAACUAUGAUACGGAAAACGCGUGCUCCGUUGAAAGGAGUUUAUCAUG and GGAUCUUCUCGAUCUAACAAACAAGACAAAUCUGCCACAAAGCUUGCGAGCAUCUUCGGAUGCAGAGGCGGCUGCCUUCGGUUACGCGAUAGCGUCAACGUUGUCAACUAUGACAUGCAAAACGCGUGCUCCGUUGAAUCGAGUUUAUCAUG cannot be ordered by “polymerase ribozyme fitness (log ratio)” value: ≤ -4.2 for the first, ≤ -4.2 for the second.

GGAUCUUCUCGAUCUAACAAACACGACAAAUCUGCCACAAAGCUUGAGAGCAUCUUCGGAGGCAGAGGCGGCAGCCUUCGGUGGCGCUAUAGCGCCAACGUUCUCAACUAUGACACGCAAAACGCGUGCUCCGUUGAAUGGAGUUUAUCAUG and GGAUCUUCUCGAUCUAACAAACAAGUCAAAUCUGCCACAAAGUUUGAGAGCAUCUUCGGAUGCAGAGGCGGCAGCAUUCGGUGGCGCGAUAGGGCCAACGUUCUCAACUAUGACACGGAAAACGCGUGCUCCGUUGAAUGGAGUUUAUCAUG cannot be ordered by “polymerase ribozyme fitness (log ratio)” value: ≤ -4.2 for the first, ≤ -4.2 for the second.

Going from GGAUCUUCUCGAUCUAACAAACAAGACAAAUCUGCCACAAAGCUUGAGAGCAUCUUAGGAUGCAGAGGCGGCAGCCUUCGGUGGCGCGAUAGCGCCAACGUUCUCAACUAUGACACGUAAAACGCGUGCUCCGUUGAAUGGAGUUUAUCAUG to GGAUCUUCUCGAUCUAACAAACAAGACAAAUCUGCUACAAAGCUUGAGAGAAUCUUCGGAUGCAGAGGCGGCAGGCUUCGGUGGCGUGAUAGCGCCAACGUUCUCAACUAUGACACGCAAAACGCGUGCUCCGUUGAAUGGAGUUUAUCAUG, the “polymerase ribozyme fitness (log ratio)” value falls from -1.03 to ≤ -4.2.

Going from GGAUCUUCUCGAUCUAACAAACAAGACAAAUCUGCCACAAAGCUUGAGAGCAUCUUCGGAUGCAGAGGCGGCAGCCUUCGGUGGCGCGAUAGCGCCAACGUUCUCAACUAUGACACGCAAAACGUGUGCUCCGUUGAAUGGAGUUUAUCAUG to GGAUCUUCUCGAUCUAACAAACAAGAGAAAUCUGCCACAAAGCUUGAGAGCAUCUUCGGAUGCAGUGGCGGCAGCCUUCGGUGGCGCGAUAGCGCCAACGUUCUCAACUAUGACACGCAAAACGCGUGCUCCGUUGAAUGGAGUCUAUCAUG, the “polymerase ribozyme fitness (log ratio)” value falls from -0.469 to ≤ -4.2.

GGAUCUUCUCGAUCUAACAAACAAGACACAUCUGCCACAAAGCUUGAGAGCAUCUUCGGAUGCAGAGACGGCAGCCUUCGAUGGAGCGAUAGCGCCAACGUUCUGAACUAUGACACGCAAAACGCGUGCUCCGUUGAAUGGUGUUUAUCAUG and GGAUCUUCUCGAUCUAACAAACAAGACAAAUCUGCCACAAAGCUUGAGAGCAUCUUCGGAUGCAGAGGCGGCAGCAUUCGGUGGCGCGAUAGCGCCAACGUUCUCAACUAUGACACGCAAAACGCGUUUUCCGUUGAAUGGAGUUUAUCAUG cannot be ordered by “polymerase ribozyme fitness (log ratio)” value: ≤ -4.2 for the first, ≤ -4.2 for the second.

GGAUCUUCUCGAUCUAACAAACAAGACUAAUCUGCCACAAAGCUUGAGAGCAUCUUCGGAUACACAGGCGGCAGCCUUCGGUGGCGCGAAAGCGCCAAUGUUCUCAAUUAUGACAGGCAAAACGCGUGCUCCGUUGAAUGGAGUUUAUCAUG and GGAUCUUCUCGAUCUAACAAACAAGACAAAUCUUCCACAAAGCUUGAGAGCAUCUUCGGAUGCAGAGGCGGCAGCCUUCGGAGGCGCGAUAGAGCCAACGUUCUCAACUAUGACACGCAAAACGCGUGCUCCGUUGAAUGGAGUUUAUCAUG cannot be ordered by “polymerase ribozyme fitness (log ratio)” value: ≤ -4.2 for the first, ≤ -4.2 for the second.

First: GGAUCUUCUCGAUCUAACAAACAAGACAAAUCUGCCACAAAGCUUGAGAGCAUCUUCGGAUGCAGAGGCGGCAGCCUUCGGUGGCGCGAUAGCGCAUACGCUCUCAACUAUGACACGCAAAACGCGUGCUCCGUUGAAUGGAGUUUAUCAUG
Second: GGAUCUUCUCGAUCUAACAAACAAGACAAAUCUGCCACAAAGCUUGAGAGCAUCUUCGGAUGCAGAGGCGGCAGCCUUCGGUGGCGCGAUAGCGCCAACGUUCUCAACUAUGACACGCAAUACGCGUGCUCCGUUGAAUGGAGUUUAUCAUG
The “polymerase ribozyme fitness (log ratio)” value of the first is lower: -1.53 for the first, -0.324 for the second.

Going from GGAUCUUCUCGAUCUAACAAACAAGACAAAUCUGCCACAAAGCUUGAGAGCAUCUUUGGUUGCAGAGGGGGCAGCCUUCGGUGGCGCGAUAGCGCCAACGUUCUCAACUAUGACACGCAAAACGCGUGCUCCGUUGAAUGGAGUUUAUCAUG to GGAUCUUCUCGAUCUAACAAACAAGACAAAUCUGCCACAAAGCUUGAGAGCAUCUUCGGAUGCAGAGGCGGCAGCCUUCGGUGGCGCGAUAGCGCCAACGUUCUCAACUAUGACACGCAAAACGCGUGCUGCGUUGAAUGGAGUUUAUCAUG, the “polymerase ribozyme fitness (log ratio)” value falls from -1.7 to -3.49.

GGAUCUUCUCGAUCUAACAAACAAGACCAAUCUGCCACAGAGUUUGAGAGCAUCUGCGGAUGCAGAGGCGGCAGCCUUCGGUGGUGCGAUAGCGCCAACGUUCUCAACUAUGACACGCAAAACGCGUGCUCCGUUGAAUGGAGUUUAUCAUG and GGAUCUUCUCGAUCUAACAAACAAGAGAAAUCUGCCCCAAAGCUUGAGAGCAUCUUCGGAUGCAGAGGCGGCGGCCUUCGGUGGCGCGAUAGCGCCAACGUUCUCAACUAUGACACGCAAAACGCGUGCUCCGUUGAAUGGAGUUAAUCAUU cannot be ordered by “polymerase ribozyme fitness (log ratio)” value: ≤ -4.2 for the first, ≤ -4.2 for the second.

For GGAUCUUCUCGAUCUAACAAACAAGACAAAUCUGCCACGAAGCUUGAGAGCAUCUUCGGAUGCAGAGGCGGCAGCCUUCGGUGGCGCGAUAGCGCCAACGUUCUCAACUAUGACACGCAAAACGCGUGCUCCGUUGAAUGGAGCUUAUCAUG, the “polymerase ribozyme fitness (log ratio)” value was -4.03.
